Experimental data as given in US20030105303A1.

How the values were obtained:
[1] = molecular target: DNAX Leukocyte Associated Immunoglobulin-like Receptor (DLAIR-1), the DX26 antigen / YE01 gene product (human); assay: flow cytometry (FACScan) on Jurkat T cell tumor cells; PE goat-anti-mouse-IgG second step
[2] = molecular target: DNAX Leukocyte Associated Immunoglobulin-like Receptor (DLAIR-1), the DX26 antigen / YE01 gene product (human); assay: flow cytometry (FACScan) on U937 myeloid tumor cells; PE goat-anti-mouse-IgG second step
[3] = molecular target: DNAX Leukocyte Associated Immunoglobulin-like Receptor (DLAIR-1), the DX26 antigen / YE01 gene product (human); assay: flow cytometry (FACScan) on Molt4 T cell tumor cells; PE goat-anti-mouse-IgG second step
[4] = molecular target: DNAX Leukocyte Associated Immunoglobulin-like Receptor (DLAIR-1), the DX26 antigen / YE01 gene product (human); assay: flow cytometry (FACScan) on HUT78 T cell tumor cells; PE goat-anti-mouse-IgG second step
[5] = molecular target: DNAX Leukocyte Associated Immunoglobulin-like Receptor (DLAIR-1), the DX26 antigen / YE01 gene product (human); assay: flow cytometry (FACScan) on HL60 promyeloid tumor cells; PE goat-anti-mouse-IgG second step
[6] = molecular target: DNAX Leukocyte Associated Immunoglobulin-like Receptor (DLAIR-1), the DX26 antigen / YE01 gene product (human); assay: flow cytometry (FACScan) on CEM T cell tumor cells; PE goat-anti-mouse-IgG second step
[7] = molecular target: DNAX Leukocyte Associated Immunoglobulin-like Receptor (DLAIR-1), the DX26 antigen / YE01 gene product (human); assay: flow cytometry (FACScan) on Peer T cell tumor cells; PE goat-anti-mouse-IgG second step

mean fluorescence intensity [1]: 47.1
mean fluorescence intensity [2]: 49.5
mean fluorescence intensity [3]: 30.7
mean fluorescence intensity [4]: 25.8
mean fluorescence intensity [5]: 46.9
mean fluorescence intensity [6]: 92.7
mean fluorescence intensity [7]: 29.1
Substance: DX26 monoclonal antibody
